Reference: publication PMC5105163

Target: HLA-DM, P28067;P28068
Assay: SPR
Conditions: parent DR1/CW trace is at 10 µM, parent: est. 0, read off a plot

| response (10 µM DR1-βE87P/CW analyte over immobilised DM) [RU] | response (5 µM DR1-βG84PβE87P/CW analyte over immobilised DM) [RU] | Substance |
| --- | --- | --- |
| 50 |  | HLA-DR1/CLIP_(102-120)M107W complex (from UniProt P04233) βE87P |
|  | 270 | HLA-DR1/CLIP_(102-120)M107W complex (from UniProt P04233) βG84P; βE87P |
